According to US20100248359A1 (Chugai, published 2010):
Where a chain is given by its changes, count along the chain named. In names and notes the source's numbering stands. Where two headings read alike, the source gives them in different places.

Key:
full-length human GPC3 [1] = biological target: T1, full-length human GPC3 (human, UniProt P51654 25-554); assay: flow cytometry, antibody at 5 µg/mL, HuH-7 cells
T1 construct: On CHO (DXB11) or SK-HEP-1 (SK-03) transfectants; also used here for the GPC3 on the hepatoma lines HepG2 and HuH-7; also called human glypican 3

[2] = biological target: T2, soluble form of GPC3 core protein (human, UniProt P51654 25-563); assay: ELISA on plate coated with soluble GPC3 core protein
T2 construct: not shown: His tag added to the C-terminus

full-length human GPC3 [3] = biological target: T1, full-length human GPC3; assay: flow cytometry, antibody at 5 µg/mL, CHO cells expressing human GPC3 (column CHO/human GPC3)
[4] = biological target: T3, GC-3 (GST fusion of GPC3 Ala524 to Lys563) (human, UniProt P51654 524-563); assay: Western blotting of GST-fusion proteins
T3 construct: not shown: GST as encoded by pGEX-4T-3 (Amersham), N-terminal to the GPC3 peptide
T3 chain: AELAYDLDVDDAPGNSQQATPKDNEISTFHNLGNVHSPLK

full-length human GPC3 [5] = biological target: T1, full-length human GPC3; assay: flow cytometry, antibody at 5 µg/mL, HepG2 cells
full-length human GPC3 [6] = biological target: T1, full-length human GPC3; assay: BIACORE; the form of GPC3 used is not given
[7] = biological target: T2, soluble form of GPC3 core protein; assay: competitive ELISA on coated soluble GPC3 core protein; labelled competitor biotin-M5B9;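 also: Biotin-labelled antibody added as 10 µL at 10 µg/mL for 1 h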
[8] = biological target: T2, soluble form of GPC3 core protein; assay: competitive ELISA on coated soluble GPC3 core protein; labelled competitor biotin-L9G11;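 also: Biotin-labelled antibody added as 10 µL at 10 µg/mL for 1 h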
[9] = biological target: T2, soluble form of GPC3 core protein; assay: competitive ELISA on coated soluble GPC3 core protein; labelled competitor biotin-M1E7;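 also: Biotin-labelled antibody added as 10 µL at 10 µg/mL for 1 h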
[10] = biological target: T2, soluble form of GPC3 core protein; assay: competitive ELISA on coated soluble GPC3 core protein; labelled competitor biotin-M10D2;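 also: Biotin-labelled antibody added as 10 µL at 10 µg/mL for 1 h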
[11] = biological target: T3, GC-3 (GST fusion of GPC3 Ala524 to …); assay: Western blotting of GST-fusion proteins, reducing SDS-PAGE
[12] = biological target: T2, soluble form of GPC3 core protein; assay: ELISA on plate coated with soluble GPC3 core protein; remark: listed apart in the source
[13] = biological target: T2, soluble form of GPC3 core protein; assay: competitive ELISA on coated soluble GPC3 core protein; labelled competitor biotin-M11F1;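 also: Biotin-labelled antibody added as 10 µL at 10 µg/mL for 1 h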
[14] = biological target: T2, soluble form of GPC3 core protein; assay: competitive ELISA on coated soluble GPC3 core protein; labelled competitor biotin-M3C11;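 also: Biotin-labelled antibody added as 10 µL at 10 µg/mL for 1 h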
[15] = biological target: T2, soluble form of GPC3 core protein; assay: competitive ELISA on coated soluble GPC3 core protein; labelled competitor biotin-M18D4;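 also: Biotin-labelled antibody added as 10 µL at 10 µg/mL for 1 h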
[16] = biological target: T2, soluble form of GPC3 core protein; assay: competitive ELISA on coated soluble GPC3 core protein; labelled competitor biotin-M6B1;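 also: Biotin-labelled antibody added as 10 µL at 10 µg/mL for 1 h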
[17] = biological target: T4, secreted form of GPC3 in the culture supernatant of HepG2 (human, UniProt P51654 25-358, limits assumed); assay: immunoprecipitation of the culture supernatant of HepG2, detection of secreted GPC3
T4 construct: also called secretory GPC3; secreted form of GPC3 of 40 kDa

full-length human GPC3 [18] = biological target: T1, full-length human GPC3; assay: flow cytometry, antibody at 5 µg/mL, HepG2 cells; remark: listed apart in the source
full-length human GPC3 [19] = biological target: T1, full-length human GPC3; assay: flow cytometry, antibody at 5 µg/mL, CHO cells expressing human GPC3 (column CHO/human GPC3); remark: listed apart in the source
full-length human GPC3 [20] = biological target: T1, full-length human GPC3; assay: flow cytometry, antibody at 5 µg/mL, HuH-7 cells; remark: listed apart in the source
[21] = biological target: T2, soluble form of GPC3 core protein; assay: ELISA on plate coated with soluble GPC3 core protein; antibody from COS7 culture supernatant
[22] = biological target: T2, soluble form of GPC3 core protein; assay: ELISA on plate coated with soluble GPC3 core protein; antibody from COS7 culture supernatant [middle right panel]
[23] = biological target: T2, soluble form of GPC3 core protein; assay: ELISA on plate coated with soluble GPC3 core protein; antibody from COS7 culture supernatant [upper left panel]
[24] = biological target: T2, soluble form of GPC3 core protein; assay: ELISA on plate coated with soluble GPC3 core protein; antibody from COS7 culture supernatant [lower right panel]

T1 sequence (P51654 25-554 limits assumed): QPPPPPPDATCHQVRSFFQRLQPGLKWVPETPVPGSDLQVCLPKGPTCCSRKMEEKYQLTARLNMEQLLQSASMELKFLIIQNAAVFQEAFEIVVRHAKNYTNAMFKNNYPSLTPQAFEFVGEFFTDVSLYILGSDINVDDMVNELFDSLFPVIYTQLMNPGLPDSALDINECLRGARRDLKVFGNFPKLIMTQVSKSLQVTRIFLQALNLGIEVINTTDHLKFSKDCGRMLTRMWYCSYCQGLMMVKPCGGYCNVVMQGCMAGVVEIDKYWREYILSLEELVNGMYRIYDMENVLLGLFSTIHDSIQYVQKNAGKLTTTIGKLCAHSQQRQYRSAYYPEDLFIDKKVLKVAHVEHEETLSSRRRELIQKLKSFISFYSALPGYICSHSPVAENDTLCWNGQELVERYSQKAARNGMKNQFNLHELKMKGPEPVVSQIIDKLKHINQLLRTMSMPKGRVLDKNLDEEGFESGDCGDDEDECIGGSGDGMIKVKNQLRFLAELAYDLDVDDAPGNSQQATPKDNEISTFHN
T4 sequence (P51654 25-358 limits assumed): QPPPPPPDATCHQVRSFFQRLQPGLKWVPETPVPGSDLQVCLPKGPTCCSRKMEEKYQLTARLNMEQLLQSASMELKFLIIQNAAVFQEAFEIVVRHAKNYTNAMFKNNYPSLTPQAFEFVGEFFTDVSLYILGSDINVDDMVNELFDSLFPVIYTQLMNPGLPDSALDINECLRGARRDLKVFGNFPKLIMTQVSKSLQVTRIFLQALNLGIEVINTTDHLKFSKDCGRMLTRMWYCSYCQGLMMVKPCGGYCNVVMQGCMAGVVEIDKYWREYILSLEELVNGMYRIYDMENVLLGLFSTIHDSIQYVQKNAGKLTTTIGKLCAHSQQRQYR

B1: GC179 (antibody, V domains shown)
VH: EVQLVETGGGLVQPEGSLKLSCAASGFSFNINAMNWVRQAPGKGLEWVARIRSESNNYATYYGDSVKDRFTISRDDSQNMLYLQMNNLKTEDTAIYYCVREVTTSFAYWGQGTLVTVSA
VL: DIVMTQSAPSVPVTPGESVSISCKSSKSLLHSNGNTYLNWFLQRPGQSPQLLIYWMSNLASGVPDRFSGSGSGTAFTLRISRVEAEDVGVYYCMQHIEYPFTFGTGTKLEIK
notes: Mouse monoclonal from a mouse immunized with GC-3
FACS X-mode value of the histogram (full-length human GPC3 [1]): 3.8
EC50 [2]: 5.61 nM
FACS X-mode value of the histogram (full-length human GPC3 [3]): 7.1
binding result [4]: binds
FACS X-mode value of the histogram (full-length human GPC3 [5]): 6.5

B2: M11F1 (antibody, V domains shown)
VH: QVTLKESGPGILQPSQTLSLTCSFSGFSLSIYGMGVGWIRQPSGKGLEWLANIWWNDDKYYNSALKSRLTISKDTSNNQVFLKISSVDTADTATYYCAQIGYFYFDYWGQGTTLTVSS
VL: DVVMTQTPLSLPVSLGDQASISCRSSQSLVHSNGNTYLHWYLQKPGQSPKLLIYKVSNRFSGVPDRFSGSGSGTDFTLKISRVEAEDLGVYFCSQSTHVPWTFGGGTKLEIK
notes: Mouse monoclonal from hybridoma
Kd (full-length human GPC3 [6]): 0.2 nM
koff (full-length human GPC3 [6]): 3.5e-05 s⁻¹
kon (full-length human GPC3 [6]): 140000 M⁻¹ s⁻¹
Inhibition of the binding of indicated biotin-Mab to sGPC3 core (%) [7]: 5.4%
Inhibition of the binding of indicated biotin-Mab to sGPC3 core (%) [8]: 20.9%
Inhibition of the binding of indicated biotin-Mab to sGPC3 core (%) [9]: 3.9%
Inhibition of the binding of indicated biotin-Mab to sGPC3 core (%) [10]: 24.6%
binding result [11]: binds
EC50 [12]: 2.17 nM
Inhibition of the binding of indicated biotin-Mab to sGPC3 core (%) [13]: 81.8%
Inhibition of the binding of indicated biotin-Mab to sGPC3 core (%) [14]: 2%
Inhibition of the binding of indicated biotin-Mab to sGPC3 core (%) [15]: -1.5%
Inhibition of the binding of indicated biotin-Mab to sGPC3 core (%) [16]: 5.6%
binding result [17]: no binding
FACS X-mode value of the histogram (full-length human GPC3 [18]): 4
FACS X-mode value of the histogram (full-length human GPC3 [19]): 9
FACS X-mode value of the histogram (full-length human GPC3 [20]): 2

B3: M1E7 (antibody, human IgG1, kappa, V domains shown)
VH: EVQLQQSGPELVKPGASVKISCKASGYSFTGYYMHWVKQSPEKSLEWIGEINPSTGGTTYNQKFKAKATLTVDKSSSTAYMQLKSLTSEDSAVYYCARRGGLTGTSFFAYWGQGTLVTVSA
VL: DVVMTQTPLSLSVTIGQPASISCKSSQSLLYSNGKTYLNWLQQRPGQAPKHLMYQVSKLDPGIPDRFSGSGSETDFTLKISRVEAEDLGVYYCLQSTYYPLTFGAGTKLELKR
notes: Mouse monoclonal from hybridoma; also called M1E07
Kd (full-length human GPC3 [6]): 2.8 nM
koff (full-length human GPC3 [6]): 0.000427 s⁻¹
kon (full-length human GPC3 [6]): 150000 M⁻¹ s⁻¹
Inhibition of the binding of indicated biotin-Mab to sGPC3 core (%) [7]: 6.4%
Inhibition of the binding of indicated biotin-Mab to sGPC3 core (%) [8]: 38%
Inhibition of the binding of indicated biotin-Mab to sGPC3 core (%) [9]: 83.9%
Inhibition of the binding of indicated biotin-Mab to sGPC3 core (%) [10]: 14.8%
binding result [11]: no binding
EC50 [12]: 0.96 nM
Inhibition of the binding of indicated biotin-Mab to sGPC3 core (%) [13]: 14.3%
Inhibition of the binding of indicated biotin-Mab to sGPC3 core (%) [14]: 26%
Inhibition of the binding of indicated biotin-Mab to sGPC3 core (%) [15]: 9%
Inhibition of the binding of indicated biotin-Mab to sGPC3 core (%) [16]: 7.7%
binding result [17]: no binding
FACS X-mode value of the histogram (full-length human GPC3 [18]): 16
FACS X-mode value of the histogram (full-length human GPC3 [19]): 28
FACS X-mode value of the histogram (full-length human GPC3 [20]): 5

B4: humanized GC33 H chain ver.k / L chain ver.a (antibody, V domains shown)
VH: QVQLVQSGAEVKKPGASVKVSCKASGYTFTDYEMHWVRQAPGQGLEWMGALDPKTGDTAYSQKFKGRVTLTADKSTSTAYMELSSLTSEDTAVYYCTRFYSYTYWGQGTLVTVSS
VL: DVVMTQSPLSLPVTPGEPASISCRSSQSLVHSNGNTYLHWYLQKPGQSPQLLIYKVSNRFSGVPDRFSGSGSGTDFTLKISRVEAEDVGVYYCSQNTHVPPTFGQGTKLEIK
notes: Parent of the N33 and G34 L chain variants
EC50 (read off the curve) [21]: ~0.02 mg/L

B5: modified humanized GC33 (H chain ver.k, L chain G34K) (antibody, human IgG1, V domains shown)
VH: B4 VH
VL: B4 VL with G34K
notes: COS7 supernatant; human IgG1/kappa
EC50 (read off the curve) [22]: ~0.02 mg/L

B6: modified humanized GC33 (H chain ver.k, L chain G34I) (antibody, human IgG1, V domains shown)
VH: B4 VH
VL: B4 VL with G34I
notes: as for B5
EC50 (read off the curve) [22]: ~0.02 mg/L

B7: modified humanized GC33 (H chain ver.k, L chain G34A) (antibody, human IgG1, V domains shown)
VH: B4 VH
VL: B4 VL with G34A
notes: as for B5
EC50 (read off the curve) [23]: ~0.02 mg/L

B8: modified humanized GC33 (H chain ver.k, L chain G34D) (antibody, human IgG1, V domains shown)
VH: B4 VH
VL: B4 VL with G34D
notes: as for B5
EC50 (read off the curve) [23]: ~0.02 mg/L

B9: modified humanized GC33 (H chain ver.k, L chain G34R) (antibody, human IgG1, V domains shown)
VH: B4 VH
VL: B4 VL with G34R
notes: as for B5
EC50 (read off the curve) [24]: ~0.02 mg/L
